Key:
Vimentin [1] = biological target: T1, Vimentin (human, UniProt P08670 1-466); experiment: EMSA; 150 mM KCl; 8 uM Vimentin, 500 nM DNA; 5 mM Tris pH 8.4, 150 mM KCl, 1 h at room temperature; 1.5% agarose in 1x TBE + 10 mM KCl, run at 4 C; details: protein: recombinant
Vimentin [2] = biological target: T1, Vimentin; experiment: EMSA; DNA annealed in 150 mM KCl; 8 uM Vimentin, 500 nM DNA; 5 mM Tris pH 8.4, 150 mM KCl, 1 h at room temperature; 1.5% agarose in 1x TBE + 10 mM KCl, run at 4 C; details: protein: recombinant; parallel G4-repeat after annealing in 150 mM KCl
Vimentin [3] = biological target: T1, Vimentin; experiment: EMSA; DNA annealed in 150 mM KCl; no free DNA left; 8 uM Vimentin, 500 nM DNA; 5 mM Tris pH 8.4, 150 mM KCl, 1 h at room temperature; 1.5% agarose in 1x TBE + 10 mM KCl, run at 4 C; details: protein: recombinant; parallel G4-repeat

T1 sequence (P08670 whole entry): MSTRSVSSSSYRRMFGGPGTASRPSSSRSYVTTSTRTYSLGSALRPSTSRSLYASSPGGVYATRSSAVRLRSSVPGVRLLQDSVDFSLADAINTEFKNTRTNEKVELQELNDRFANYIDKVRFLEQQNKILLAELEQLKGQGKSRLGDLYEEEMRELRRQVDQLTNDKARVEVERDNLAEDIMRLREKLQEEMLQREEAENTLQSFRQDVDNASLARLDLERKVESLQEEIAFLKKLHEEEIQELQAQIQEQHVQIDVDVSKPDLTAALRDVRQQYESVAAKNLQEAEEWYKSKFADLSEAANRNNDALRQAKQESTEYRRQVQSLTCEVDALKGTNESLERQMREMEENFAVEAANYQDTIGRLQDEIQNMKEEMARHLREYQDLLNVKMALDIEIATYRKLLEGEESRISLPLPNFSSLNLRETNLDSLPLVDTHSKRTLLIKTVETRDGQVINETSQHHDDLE

Binder: CGGGCGGGCGAGGGGCCGGGC (structured_DNA) [TEAD4-near]
- binding result (Vimentin [1]; intramolecular G4, mainly antiparallel): no binding

Binder: CGGGGCGGGGCGGGGCCGGGC (structured_DNA) [TEAD4-far]
- binding result (Vimentin [1]; G4, parallel and antiparallel components): no binding

Binder: CGGGCGGGCGAGGGGCCGGGCCGCCGGGGCGGGGCGGGGCCGGGC (structured_DNA) [TEAD4-full]
- binding result (Vimentin [2]): binds

Binder: CGGGCGGGCGAGGGGCCGGGTTGTTGGGGCGGGGCGGGGCCGGGC (structured_DNA) [TEAD4-full-2TT]
- binding result (Vimentin [3]): binds
